Blank lines part the entries; values can stand above or below the substance they belong to.
Experiments:
[1] = biological target: GST-syntaxin 1A cytoplasmic domain fusion protein (Syn 1A11, amino acids 4-266), immobilized on glutathione agarose beads (Schistosoma japonicum; rat); assay: 20S complex assembly on GST-syntaxin beads with all four proteins together, ATPγS, 18° C. overnight MgCl2, Western blot densitometry, FIG. 6B
[2] = biological target: GST-syntaxin 1A deletion mutant Syn 1A6 (amino acids 4-190) (Schistosoma japonicum; rat); assay: as above
[3] = biological target: GST-syntaxin 1A deletion mutant Syn 1A17 (amino acids 4-240) (Schistosoma japonicum; rat); assay: as above
[4] = biological target: GST-syntaxin 1A deletion mutant Syn 1A13 (amino acids 4-221) (Schistosoma japonicum; rat); assay: as above
[5] = biological target: GST-syntaxin 1A H3 domain construct Syn 1A16 (amino acids 191-266) (Schistosoma japonicum; rat); assay: as above
[6] = biological target: GST-syntaxin 1A cytoplasmic domain fusion protein (Syn 1A11, amino acids 4-266), immobilized on glutathione agarose beads (Schistosoma japonicum; rat); assay: 20S complex assembly on GST-syntaxin beads with SNAP-25, VAMP, α-SNAP and NSF added together, ATP, 25° C., Western blot densitometry, FIG. 6A
[7] = biological target: GST-syntaxin 1A deletion mutant Syn 1A17 (amino acids 4-240) (Schistosoma japonicum; rat); assay: 20S complex on GST-Syn 1A17 beads, ATP and Mg++, Western blot densitometry
[8] = biological target: GST-syntaxin 1A cytoplasmic domain fusion protein (Syn 1A11, amino acids 4-266), immobilized on glutathione agarose beads (Schistosoma japonicum; rat); assay: 20S complex assembly on GST-syntaxin beads with all four proteins together, ATP, 18° C. overnight MgCl2, Western blot densitometry, FIG. 6B
[9] = biological target: GST-syntaxin 1A deletion mutant Syn 1A6 (amino acids 4-190) (Schistosoma japonicum; rat); assay: as above
[10] = biological target: GST-syntaxin 1A deletion mutant Syn 1A17 (amino acids 4-240) (Schistosoma japonicum; rat); assay: as above
[11] = biological target: GST-syntaxin 1A deletion mutant Syn 1A13 (amino acids 4-221) (Schistosoma japonicum; rat); assay: as above
[12] = biological target: GST-syntaxin 1A H3 domain construct Syn 1A16 (amino acids 191-266) (Schistosoma japonicum; rat); assay: as above
[13] = biological target: GST-syntaxin 1A H3 domain construct Syn 1A16 (amino acids 191-266) (Schistosoma japonicum; rat); assay: 20S complex on GST-Syn 1A16 beads, ATP and Mg++, Western blot densitometry
[14] = biological target: GST-syntaxin 1A cytoplasmic domain fusion protein (Syn 1A11, amino acids 4-266), immobilized on glutathione agarose beads (Schistosoma japonicum; rat); assay: 20S complex assembly on GST-syntaxin beads with SNAP-25, VAMP, α-SNAP and NSF added together, ATPγS, 25° C., Western blot densitometry, FIG. 6A
[15] = biological target: GST-syntaxin 1A deletion mutant Syn 1A17 (amino acids 4-240) (Schistosoma japonicum; rat); assay: GST-syntaxin deletion mutant on glutathione beads, soluble ligand, Western blot densitometry; FIG. 4C row 5 from top, row label only in the figure (assigned by Table 1 order and paragraph 328)
[16] = biological target: GST-syntaxin 1A deletion mutant Syn 1A4 (amino acids 8-76) (Schistosoma japonicum; rat); assay: GST-syntaxin deletion mutant on glutathione beads, soluble ligand, Western blot densitometry; FIG. 4C row 1 from top, row label only in the figure (assigned by Table 1 order and paragraph 328)
[17] = biological target: GST-syntaxin 1A deletion mutant Syn 1A5 (amino acids 4-114) (Schistosoma japonicum; rat); assay: GST-syntaxin deletion mutant on glutathione beads, soluble ligand, Western blot densitometry; FIG. 4C row 2 from top, row label only in the figure (assigned by Table 1 order and paragraph 328)
[18] = biological target: GST-syntaxin 1A (Syn1A11) point mutant 13 (four point mutations) (Schistosoma japonicum; rat); assay: GST-syntaxin point mutant on glutathione beads, soluble ligand, Western blot densitometry, FIG. 5B
[19] = biological target: GST-syntaxin 1A (Syn1A11) point mutant M4: V223A, Q226A (Schistosoma japonicum; rat); assay: as above
[20] = biological target: GST-syntaxin 1A (Syn1A11) point mutant M3: L212A, F216A (Schistosoma japonicum; rat); assay: as above
[21] = biological target: GST-syntaxin 1A (Syn1A11) point mutant M1: R198A, I202A (Schistosoma japonicum; rat); assay: as above
[22] = biological target: GST-syntaxin 1A (Syn1A11) point mutant 34 (Schistosoma japonicum; rat); assay: as above
[23] = biological target: GST-syntaxin 1A (Syn1A11) point mutant M2: L205A, I209A (Schistosoma japonicum; rat); assay: as above
[24] = biological target: GST-syntaxin 1A (Syn1A11) point mutant 45 (Schistosoma japonicum; rat); assay: as above
[25] = biological target: GST-syntaxin 1A (Syn1A11) point mutant M6: A240V, V244A (Schistosoma japonicum; rat); assay: as above
[26] = biological target: GST-syntaxin 1A (Syn1A11) point mutant 12 (four point mutations) (Schistosoma japonicum; rat); assay: as above
[27] = biological target: GST-syntaxin 1A (Syn1A11) point mutant M5: I230A, I233A (Schistosoma japonicum; rat); assay: as above
[28] = biological target: GST-syntaxin 1A deletion mutant Syn 1A13 (amino acids 4-221) (Schistosoma japonicum; rat); assay: GST-syntaxin deletion mutant on glutathione beads, soluble ligand, Western blot densitometry; FIG. 4C row 4 from top, row label only in the figure (assigned by Table 1 order and paragraph 328)
[29] = biological target: GST-syntaxin 1A deletion mutant Syn 1A6 (amino acids 4-190) (Schistosoma japonicum; rat); assay: GST-syntaxin deletion mutant on glutathione beads, soluble ligand, Western blot densitometry; FIG. 4C row 3 from top, row label only in the figure (assigned by Table 1 order and paragraph 328)
[30] = biological target: GST-syntaxin 1A cytoplasmic domain fusion protein (Syn 1A11, amino acids 4-266), immobilized on glutathione agarose beads (Schistosoma japonicum; rat); assay: GST-syntaxin 1A (wild type) on glutathione beads, soluble ligand, Western blot densitometry, FIG. 5B
[31] = biological target: VAMP 2 cytoplasmic domain (amino acids 1-94), recombinant, immobilized on the SPR flow cell (rat); assay: SPR (BIAcore), VAMP 2 cytoplasmic domain immobilized
[32] = biological target: VAMP 2 cytoplasmic domain (amino acids 1-94), recombinant, immobilized on the SPR flow cell (rat); assay: SPR (BIAcore), VAMP 2 cytoplasmic domain immobilized; KD = kd/ka

Sequence of VAMP 2 cytoplasmic domain (amino acids 1-94), recombinant, immobilized on the SPR flow cell (rat) (chain, as listed by the source): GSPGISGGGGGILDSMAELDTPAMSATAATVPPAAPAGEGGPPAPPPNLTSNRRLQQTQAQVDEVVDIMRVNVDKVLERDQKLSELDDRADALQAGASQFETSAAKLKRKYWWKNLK
Sequence of His-tagged NSF (N-ethylmaleimide-sensitive factor), soluble recombinant (P18708 whole entry): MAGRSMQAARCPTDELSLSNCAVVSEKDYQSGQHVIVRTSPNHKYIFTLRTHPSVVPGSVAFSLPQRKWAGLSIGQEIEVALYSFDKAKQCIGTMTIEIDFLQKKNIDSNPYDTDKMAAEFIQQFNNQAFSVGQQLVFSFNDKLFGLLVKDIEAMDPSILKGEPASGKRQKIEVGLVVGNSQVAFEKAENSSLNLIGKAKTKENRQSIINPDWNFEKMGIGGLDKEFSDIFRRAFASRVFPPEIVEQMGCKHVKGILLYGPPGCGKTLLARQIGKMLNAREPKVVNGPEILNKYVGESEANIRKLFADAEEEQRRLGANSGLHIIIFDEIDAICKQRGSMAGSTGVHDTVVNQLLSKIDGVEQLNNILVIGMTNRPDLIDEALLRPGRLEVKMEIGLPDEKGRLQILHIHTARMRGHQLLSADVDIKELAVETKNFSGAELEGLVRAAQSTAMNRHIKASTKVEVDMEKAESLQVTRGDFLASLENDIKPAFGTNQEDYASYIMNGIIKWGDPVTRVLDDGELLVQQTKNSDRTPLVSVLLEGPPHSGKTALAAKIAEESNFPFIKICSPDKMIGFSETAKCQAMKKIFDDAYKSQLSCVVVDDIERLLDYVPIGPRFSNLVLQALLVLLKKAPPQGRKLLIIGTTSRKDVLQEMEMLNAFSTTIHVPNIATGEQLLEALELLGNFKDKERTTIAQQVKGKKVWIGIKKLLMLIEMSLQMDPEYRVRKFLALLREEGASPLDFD
Sequence of syntaxin 1A carboxyl-terminal domain (amino acids 194-267), soluble recombinant (chain): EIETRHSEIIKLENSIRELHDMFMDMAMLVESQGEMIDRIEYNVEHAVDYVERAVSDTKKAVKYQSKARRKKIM

densitometry pixel value [1]: 163 pixel value | densitometry pixel value [2]: 0 pixel value | densitometry pixel value [3]: 295 pixel value | densitometry pixel value [4]: 46 pixel value | densitometry pixel value [5]: 319 pixel value | densitometry pixel value [6]: 362 pixel value | percent dissociated in the presence of ATP and Mg++ [7]: 30% | densitometry pixel value [8]: 92 pixel value | densitometry pixel value [9]: 0 pixel value | densitometry pixel value [10]: 198 pixel value | densitometry pixel value [11]: 12 pixel value | densitometry pixel value [12]: 357 pixel value | percent dissociated in the presence of ATP and Mg++ [13]: 11% | densitometry pixel value [14]: 1590 pixel value
Substance: His-tagged NSF (N-ethylmaleimide-sensitive factor), soluble recombinant (from UniProt P18708) (enzyme)

densitometry pixel value [15]: 2450 pixel value | densitometry pixel value [16]: 0 pixel value | densitometry pixel value [17]: 0 pixel value | densitometry pixel value [18]: 79 pixel value | densitometry pixel value [19]: 623 pixel value | densitometry pixel value [20]: 554 pixel value | densitometry pixel value [21]: 522 pixel value | densitometry pixel value [22]: 353 pixel value | densitometry pixel value [23]: 779 pixel value | densitometry pixel value [24]: 7 pixel value | densitometry pixel value [25]: 687 pixel value | densitometry pixel value [26]: 618 pixel value | densitometry pixel value [27]: 15 pixel value | densitometry pixel value [28]: 84 pixel value | densitometry pixel value [29]: 0 pixel value | densitometry pixel value [30]: 1070 pixel value
Substance: n-sec1, soluble recombinant (from UniProt P61765)

koff [31]: 0.0022 s⁻¹ | kon [31]: 470 M⁻¹ s⁻¹ | Kd [32]: 4.7 µM
Substance: syntaxin 1A carboxyl-terminal domain (amino acids 194-267), soluble recombinant

Source: patent publication US5693476
